Results: patent US20200010567A1 (NEURIMMUNE, published 2020)

Tests used:
[1] = target: T1, GP6: H-(GP)6HHHHHH-NH2; test: indirect ELISA, His-tagged peptide coated at 50 ug/ml, antibody titrated
T1 peptide: H-GPGPGPGPGPGPHHHHHH-NH2
Description: (§1) 96-well microplates (Corning Incorporated, Corning, USA) were coated with dipeptide repeat protein peptides at a concentration of 50 μg/ml in coating buffer (15 mM Na₂CO₃, 35 mM NaHCO₃, pH 9.42). Non-specific binding sites were blocked for 1 h at room temperature with PBS/0.1% Tween®-20 containing 2% BSA (Sigma-Aldrich, Buchs, Switzerland). Primary antibodies were diluted to the indicated concentrations and incubated 1 h at room temperature, followed by incubation with a donkey anti-human IgG Fcγ-specific antibody conjugated with HRP (Jackson ImmunoResearch Laboratories, Inc., West Grove, USA). Binding was determined by measurement of HRP activity in a standard colorimetric assay. EC₅₀ values were estimated by non-linear regression using GraphPad Prism software (San Diego, USA).
(§2) High affinity binding was detected for poly-GA DPRs harboring 10 or 20 (GA)-repeats, reflected in an EC₅₀ in the subnanomolar or low nanomolar range (FIGS. 7A, 7C-7I).

[2] = target: T2, GR10: H-(GR)10HHHHHH-NH2 (C-terminal amide); test: as above
T2 peptide: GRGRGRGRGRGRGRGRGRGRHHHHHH
Description: as §1, §2

[3] = target: T3, BSA-coupled (GP)15 DPR protein peptide (bovine, conjugated via a bifunctional linker (SMCC) to bovine serum albumin); test: Western blot, BSA-coupled peptide
T3 construct: also called BSA-(GP)15
T3 sequence (peptide, as listed by the source limits assumed, chain 1 of 2): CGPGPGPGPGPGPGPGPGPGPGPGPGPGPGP
T3 sequence (P02769 25-607 limits assumed, chain 2 of 2): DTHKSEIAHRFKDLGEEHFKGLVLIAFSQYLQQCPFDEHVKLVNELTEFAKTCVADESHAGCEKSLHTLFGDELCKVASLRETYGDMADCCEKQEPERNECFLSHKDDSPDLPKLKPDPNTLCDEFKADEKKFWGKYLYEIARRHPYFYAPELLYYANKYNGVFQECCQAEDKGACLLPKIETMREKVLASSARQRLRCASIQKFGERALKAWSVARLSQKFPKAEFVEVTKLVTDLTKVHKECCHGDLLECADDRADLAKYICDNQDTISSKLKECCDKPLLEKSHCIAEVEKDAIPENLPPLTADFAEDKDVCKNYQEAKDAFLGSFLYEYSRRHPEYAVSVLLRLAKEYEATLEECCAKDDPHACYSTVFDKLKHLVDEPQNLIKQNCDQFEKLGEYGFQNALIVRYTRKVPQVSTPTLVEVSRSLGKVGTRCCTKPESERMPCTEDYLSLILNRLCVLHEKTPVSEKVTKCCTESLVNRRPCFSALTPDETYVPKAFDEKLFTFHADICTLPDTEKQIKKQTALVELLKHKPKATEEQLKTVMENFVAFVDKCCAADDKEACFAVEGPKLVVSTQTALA
Description: (§3) Resolved proteins were then electroblotted (Novex® Semi-Dry Blotter, 1 h, 25V) on methanol-activated PVDF membranes (Immobilon®-P Transfer Membrane, Merck & Cie, Schaffhausen, Switzerland) by the use of Novex® NuPAGE® transfer buffer 2× (Life Technologies Europe B.V., Zug, Switzerland). Non-specific binding sites were blocked overnight at 4° C. (or alternatively for 1 h at room temperature) with PBS/0.1% Tween®-20 containing 2% BSA (Sigma-Aldrich, Buchs, Switzerland) (PBST). […] Membranes were washed three times in PBST for 15 min at RT and then incubated with a donkey anti-human IgG Fcγ-specific antibody conjugated with HRP (1:20000 or 1:10000 dilution, Jackson ImmunoResearch Laboratories, Inc., West Grove, USA) for 1 h at room temperature. Antibody binding was determined by membrane development using ECL and ImageQuant 350 detection (GE Healthcare, Otelfingen, Switzerland).
(§4) The binding specificity of the human-derived antibodies to BSA-coupled C9orf72 dipeptide repeat proteins (GA)₁₅, (GP)₁₅, (GR)₁₅, (PA)₁₅ and (PR)₁₅ was determined by Western blot analysis.

[4] = target: T4, BSA-coupled (PA)15 DPR protein peptide (bovine, UniProt P02769 25-607, conjugated via a bifunctional linker (SMCC) to bovine serum albumin); test: Western blot, BSA-coupled peptide
T4 construct: also called BSA-(PA)15
T4 sequence (peptide, as listed by the source limits assumed, chain 1 of 2): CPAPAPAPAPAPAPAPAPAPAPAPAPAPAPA
T4 sequence (P02769 25-607 limits assumed, chain 2 of 2): as the sequence (P02769 25-607 limits assumed, chain 2 of 2) above
Description: as §3, §4

[5] = target: T5, BSA-coupled (PR)15 DPR protein peptide (bovine, conjugated via a bifunctional linker (SMCC) to bovine serum albumin); test: indirect ELISA, BSA-coupled peptide coated, antibody titrated [also D00013 FIG. 3F]
T5 construct: also called BSA-(PR)15
T5 sequence (peptide, as listed by the source limits assumed, chain 1 of 2): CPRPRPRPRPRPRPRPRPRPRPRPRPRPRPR
T5 sequence (P02769 25-607 limits assumed, chain 2 of 2): as the sequence (P02769 25-607 limits assumed, chain 2 of 2) above
Description: as §1, with “In brief, dipeptide repeat proteins were synthesized and purified by Schafer-N(Copenhagen, Denmark): (GA)₁₅: H-CHHHHHH(GA)₁₅-OH; (GP)₁₅: H-C(GP)₁₅-OH; (GR)₁₅: H-C(GR)₁₅-OH; (PA)₁₅: H-C(PA)₁₅-OH; (PR)₁₅: H—C(PR)₁₅-OH. DPR protein peptides were then conjugated via a bifunctional linker (SMCC) to bovine serum albumin (BSA). 96-well microplates” for “96-well microplates”, “coated with BSA-coupled or -uncoupled dipeptide repeat” for “coated with dipeptide repeat”, “concentration of either 5 μg/ml or 20 μg/ml in” for “concentration of 50 μg/ml in”

[6] = target: T6, PA2: H-(PA)2HHHHHH-NH2; test: indirect ELISA, His-tagged peptide coated at 50 ug/ml, antibody titrated [also D00028 FIG. 7P]
T6 peptide: H-PAPAHHHHHH-NH2
Description: as §1, §2

[7] = target: T7, PA4: H-(PA)4HHHHHH-NH2; test: as above
T7 peptide: H-PAPAPAPAHHHHHH-NH2
Description: as §1, §2

[8] = target: T8, PA3: H-(PA)3HHHHHH-NH2; test: as above
T8 peptide: H-PAPAPAHHHHHH-NH2
Description: as §1, §2

B1: NI-308.46E9 (antibody, V domains shown)
VH: QVQLQESGPGLVKPSETLSLTCTVSGASISGSTYYWGWIRQPPGKGLEYIGRIYYSGSTYYNPSLKSRATISVDTSKNQLSLTLSSVTAADTAVYYCVRPFYAGSGNSPFDYWGQGTLVTVSS
VL: CEIVLTQSPATVSVSPGERATLSCRASQSVSTNLAWYQQKPGQPPRLLIYGASTRATGIPARFSGSGSGAEFTLTISSLQSEDFVVYYCQQYNNWPPAFGGGTKVEIK
notes: Recombinant complete human IgG1, kappa
[1]
  EC50: > 200 nM

B2: NI-308.6B11 (antibody, V domains shown)
VH: EVQLVQSGAEVKRPGASVKVSCKVSGYTLTELSMHWVRQAPGKGLEWMGGFDPEDGETVYAQKFQGRVTMTEDTSTDTAYMELSSLRSEDTALYHCATYGSSWHWNEGNEGSYYFDYWGQGTLVTVSS
VL: CDIQMTQSPSSLSASVGDRVTITCQASQDISIYLNWYQQKPGKAPKLLIYDASNLETGVPSRFSGSGSGTDFTFTISGLQPEDVARYYCQQYDDLPITFGQGTRLEIK
notes: as for B1
[2]
  EC50: 1.28 nM
[3]
  binding result: no binding (tested: 10 nM or 100 nM)
[4]
  binding result: no binding (tested: 10 nM or 100 nM)

B3: NI-308.24E11 (antibody, V domains shown)
VH: QVQLQESGPGLVKPSETLSLTCTVSTTSLRSYFWSWIRQPPGKGLEWIGYVYYSGSTIYNPSLKNRVTISIDTSKNQFSLNLRSVTAADTAMYFCARGVPAETDARDFPPYYFDHWGQGTLVTVSS
VL: CDIQLTQSPSSLSASVGNRITFTCQASQDIRYYLNWYQQKPGKAPKLLIYDVSNLDTGVPPRFSGSGSGTNFTFTISSLQPEDIAVYYCQQYEGLPVTFGGGTKVEIK
notes: as for B1
[5]
  EC50: > 200 nM

B4: NI-308.4M1 (antibody, V domains shown)
VH: EVQLVETGGGVVQPGGSLRLSCEASGFTIGTYAMHWVRQFPGKGLDWVAVISFDGTTEYYTDAVKGRFTISRDNAKNTLYLQMNYLRGDDTAIYFCARDFTSSGETGSWTQVPDLWGQGTLVTVSS
VL: CEIVMTQSPATLSLSPGERATLSCRASQSVTKYLAWYQQKPGQAPRLLIYDVSYRAAGTPARFSGSGSGTDFTLTISSLEPEDFAVYYCHQRSSWPPVTFGGGTKVEIK
notes: as for B1
[6]
  binding result: no binding (tested: about 4x10^5 pM (last point))
[7]
  binding result: no binding (tested: about 4x10^5 pM (last point))
[8]
  binding result: no binding (tested: about 4x10^5 pM (last point))
